Measured values published in US20110311507.
Positions count from the first letter of the chain named. Names and notes keep the numbering of the source.

Experiments:
[1] = molecular target: T1, V5-tagged wild type murine Siae (UniProt P70665)
T1 sequence: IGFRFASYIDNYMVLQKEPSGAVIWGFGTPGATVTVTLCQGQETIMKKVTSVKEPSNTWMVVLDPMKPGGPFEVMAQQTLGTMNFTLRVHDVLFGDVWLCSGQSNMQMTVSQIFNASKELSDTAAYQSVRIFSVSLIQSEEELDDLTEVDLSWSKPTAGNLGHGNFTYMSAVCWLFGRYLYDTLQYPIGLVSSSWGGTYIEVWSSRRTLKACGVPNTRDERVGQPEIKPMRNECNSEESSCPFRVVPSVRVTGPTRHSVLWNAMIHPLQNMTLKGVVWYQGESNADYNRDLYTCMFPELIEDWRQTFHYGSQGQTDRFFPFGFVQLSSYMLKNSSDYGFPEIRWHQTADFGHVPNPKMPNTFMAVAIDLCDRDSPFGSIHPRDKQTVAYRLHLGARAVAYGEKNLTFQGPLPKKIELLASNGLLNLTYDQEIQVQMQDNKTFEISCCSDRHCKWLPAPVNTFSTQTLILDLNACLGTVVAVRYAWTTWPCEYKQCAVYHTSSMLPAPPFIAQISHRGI

[2] = molecular target: T2, V5-tagged wild type murine Siae, P70665
T2 chain: T1 sequence

FLAG-tagged K426N Siae
enzyme activity of V5-tagged WT Siae in co-transfectants, as a function of its protein level [1]: lacks dominant negative activity

FLAG-tagged murine F430S Siae
enzyme activity of V5-tagged wild type Siae in co-transfectants, as a function of its protein level [1]: function in a dominant interfering fashion

FLAG-tagged murine Q335P SIAE
enzyme activity of V5 tagged wild type SIAE in co-transfectants, as a function of its protein level [1]: function in a dominant interfering fashion

FLAG-tagged murine R505C Siae
enzyme activity of V5-tagged wild type Siae in co-transfectants, as a function of its protein level [1]: function in a dominant interfering fashion

FLAG-tagged murine T338M SIAE
enzyme activity of V5 tagged wild type SIAE in co-transfectants, as a function of its protein level [1]: function in a dominant interfering fashion

FLAG-tagged murine Y375C Siae
enzyme activity of V5-tagged wild type Siae in co-transfectants, as a function of its protein level [1]: function in a dominant interfering fashion

B1: FLAG-tagged murine C196F SIAE (protein)
chain: T1 sequence with C173F
enzyme activity of V5 tagged wild type SIAE in co-transfectants, as a function of its protein level [2]: function in a dominant interfering fashion

B2: FLAG-tagged murine G212R Siae (protein)
chain: T1 sequence with G189R
enzyme activity of V5-tagged wild type Siae in co-transfectants, as a function of its protein level [2]: function in a dominant interfering fashion
